Measurements published in US20070172470A1, “Phosphatase regulation of nucleic acid transcription” (The Regents of the University of California, priority 2003, published 2007).
Residue numbers refer to the chain shown, from its start. Names and notes keep the numbering of the source.

T1: SCP1 (Homo sapiens, UniProt Q9GZU7)
T1 construct: GST (N, cleaved yes); made in house
T1 sequence (Q9GZU7 1-260 isoform Q9GZU7-2): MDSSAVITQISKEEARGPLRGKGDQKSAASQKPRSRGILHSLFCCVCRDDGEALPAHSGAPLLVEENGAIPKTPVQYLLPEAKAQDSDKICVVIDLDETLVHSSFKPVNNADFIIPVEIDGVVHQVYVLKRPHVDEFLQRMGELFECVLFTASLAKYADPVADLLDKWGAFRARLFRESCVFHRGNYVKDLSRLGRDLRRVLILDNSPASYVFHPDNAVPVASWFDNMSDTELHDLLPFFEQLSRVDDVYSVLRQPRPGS

T2: GST-SCP1 (Homo sapiens, UniProt Q9GZU7)
T2 construct: made in house
T2 sequence (Q9GZU7 1-261): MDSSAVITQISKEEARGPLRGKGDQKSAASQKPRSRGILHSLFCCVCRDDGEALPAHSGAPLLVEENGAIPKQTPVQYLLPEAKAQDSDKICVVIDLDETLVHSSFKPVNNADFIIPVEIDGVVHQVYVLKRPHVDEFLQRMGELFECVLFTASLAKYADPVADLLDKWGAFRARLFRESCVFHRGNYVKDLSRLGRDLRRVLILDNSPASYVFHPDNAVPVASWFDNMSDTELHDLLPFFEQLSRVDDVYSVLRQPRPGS
T2 sequence (P35269 1-517 partner): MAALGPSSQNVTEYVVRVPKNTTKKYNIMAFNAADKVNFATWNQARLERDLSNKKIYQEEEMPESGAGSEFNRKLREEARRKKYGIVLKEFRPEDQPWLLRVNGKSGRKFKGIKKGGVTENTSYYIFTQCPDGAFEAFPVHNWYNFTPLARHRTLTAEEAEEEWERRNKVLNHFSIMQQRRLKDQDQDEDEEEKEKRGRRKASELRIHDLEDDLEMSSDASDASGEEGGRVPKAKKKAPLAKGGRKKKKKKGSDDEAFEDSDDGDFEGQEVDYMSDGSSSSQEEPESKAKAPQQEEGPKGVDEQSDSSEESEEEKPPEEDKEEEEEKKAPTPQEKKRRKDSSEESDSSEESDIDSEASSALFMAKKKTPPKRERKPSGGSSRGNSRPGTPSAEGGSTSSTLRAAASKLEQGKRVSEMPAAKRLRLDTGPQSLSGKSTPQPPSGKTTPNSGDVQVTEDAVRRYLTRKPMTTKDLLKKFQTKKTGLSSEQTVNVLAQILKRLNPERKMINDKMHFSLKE

B1: RAP74: RAP74 subunit of TFIIF (protein)
chain: T2 sequence (P35269 1-517 partner)
B2: mutant SCP1: D96E, D98N phosphatase-inactive dominant negative mutant of SCP1 261, SEQ ID NO:10 (protein)
chain: T1 sequence (Q9GZU7 1-260 isoform Q9GZU7-2) with D95E, D97N
modifications: Drosophila

Legend:
SCP1 = target: T1, SCP1; test: Effect of RAP74 on CTD phosphatase activity of SCP1; assay type: biochemical; details: 7 pmol RAP74, 14.4 fmol RNAP IIO prepared by TFIIH
Procedure: Increasing amounts of the indicated forms of SCP1 and SCP2 were assayed in the presence of 14.4 fmol RNAP. IIO prepared by TFIIH. Reactions were carried out in the presence and in the absence of 7 pmol RAP74.
(§1) CTD phosphatase assays utilizing RNAP IIO and GST-CTDo as substrate were performed as described previously (32) with minor modifications. Reactions were performed in 20 μl of CTD phosphatase buffer (50 mM Tris-HCl, pH 7.9, 10 mM MgCl2, 20% glycerol, 0.025% Tween 80, 0.1 mM EDTA, 5 mM DTT) in the presence of 20 mM KCl. Each reaction contained specified amounts of GST-CTDo and/or RNAP IIO and was carried out in the presence of 7 pmol RAP74. Reactions were initiated by the addition of FCP1 or SCP1 and incubated at 30° C. for 30 minutes. Assays were terminated by the addition of 5× Laemmli buffer, and RNAP II subunits and GST-CTD were resolved on a 5% SDS-PAGE gel. The gel images were developed by autoradiography and scanned by Molecular Dynamics Image Scanner Storm 860 in the phosphor screen mode. Data were quantitatively analyzed by ImageQuant software.

GST-SCP1 = target: T2, GST-SCP1; test: Binding of RAP74 to GST-SCP1; details: not to GST
[1] = assay type: biochemical; details: PNθP as substrate
RNAP IIO = target: T3, RNAP IIO (Bos taurus, UniProt G3MZY8); test: CTD phosphatase assay with RNAP IIO as substrate; assay type: biochemical, calf; details: substrates prepared by MAPK2/ERK2
T3 construct: Calf thymus RNAP IIA was purified; from tissue; host or cells: calf thymus
Procedure: FIGS. 2C and 2D show a CTD phosphatase assay of FCP1 and SCP1 on GST-CTDo and RNAP IIO prepared by MAPK2/ERK2. Increasing amounts of FCP1 or GST-SCP1 214 were assayed in the presence of 75 fmol GST-CTDo (lanes 1-6), 75 fmol RNAP IIO (lanes 7-12), or 75 fmol GST-CTDo and 75. fmol RNAP IIO (lanes 13-18). Both GST-CTDo and RNAP IIO substrates were prepared by the in vitro phosphorylation of CKII-labeled GST-CTDa or RNAP IIA by MAPK2/ERK2. All reactions were carried out in the presence of 7 pmol RAP74. CTD dephosphorylation of both GST-CTDo and RNAP IIO is shown by the increase in mobility of GST-CTDo to GST-CTDa and subunit IIo to IIa, respectively. The difference in the intensity of radiolabeled GST-CTDoand that of radiolabeled subunit IIo is not a reflection of a difference in the amount of substrates present, but of the higher efficiency with which CKII incorporates radiolabeled phosphates onto the most C-terminal serine of GST-CTDa compared to subunit. IIa.
Increasing amounts of GST-SCP1 214 were assayed in the presence of 3.7 fmol RNAP IIO prepared by CTDK1/CTDK2, TFIIH, P-TEFb, MAPK2/ERK2 and Cdc2 kinase. All reactions were carried out in-the presence of 7 pmol. RAP74. CTD dephosphorylation of RNAP IIO isozymes. by qSTSCP1 214 is shown by an increase in mobility of subunit IIo to that of IIa. The results are summarized in the graph showing the percent of RNAP IIO remaining as a function of increasing SCP1 concentrations.
Preparation and Purification of ^32P-RNAP IIO Isozymess and ^32P-GST-CTDo: Calf thymus RNAP IIA was purified by the method of Hodo and Blatti (30) with modifications as described by Kang and Dahmus (31). Specific isozymes of ^32p-labeled RNAP IIO were prepared by phosphorylation at the most C-terminal serine (CKII site) in the largest subunit of purified RNAP IIA with recombinant CKII and […], followed by CTD phosphorylation in the presence of 2 mM ATP with either purified CTDK1/CTDK2, TFIIH, P-TEFb, recombinant MAPK2/ERK2 or recombinant Cdc2 kinase. The RNAP IIO isozymes were individually purified over a DE53 column with a step elution of 500 mM KCl (28). Because only the most C-terminal serine is labeled with ^32p and lies outside. the consensus repeat, dephosphorylation by CTD phosphatase results in an electrophoretic mobility shift in SDS-PAGE of subunit IIo to the position of subunit IIa without the loss of label. Similarly, ^32P-labeled GST-CTDo was prepared from GST-CTDa by CKII followed by MAPK2/ERK2. GST-CTDo was purified over a glutathione-agarose column with a step elution of 15 mM glutathione.
as §1

[2] = system: ElALuc, pGL3-Luc and Gal4-TATA-Luc constructs; test: Luciferase reporter assay, basal promoter activity; assay type: cell-based, human; details: ElALuc, pGL3-Luc and Gal4-TATA-Luc constructs
Excerpt: (§2) Gal4-DNA binding domain-SCP1 fusion protein expression plasmids-were cotransfected in HEK293 cells with a Gal 4-TKLuc reporter plasmid and luciferase gene expression quantitated. In all panels, results of triplicate transfections are shown +/− SD. Data is expressed as fold-activation experimental/control). […] The indicated amounts of SCP1 or mutant SCP1 expression plasmids were cotransfected in HEK293 cells along with Gal 4-VP16 expression and Gal 4-TK-Luc reporter plasmids and luciferase activity was quantitated. […] The indicated receptor expression plasmids were cotransfected with their cognate promoter-reporter plasmids with or without SCP1 or mutant SCP1 expression plasmids. Cells were treated or untreated with receptor-specific ligands as described infra. […] The indicated concentrations of SCP1 and mutant SCP1 expression plasmids were cotransfected with LMX1 and E47 expression plasmids and the rat insulin 1 promoter-luciferase reporter gene. Luciferase activity was measured as described.
(§3) Tissue Culture and Transfections: Human 293, COS7 and CV1 cells were grown at 37° C. in DMEM supplemented with 10% normal calf serum (BRL). Sub-confluent cells were transfected in 6 well tissue culture dishes using Effectene (Qiagen) according to the manufacturer's instructions. Reporter and activator plasmids (100 ng each) and Flag SCP1 (80 ng) or its mutant were used per well. […]

[3] = system: Gal 4-TK-Luc reporter stimulated by Gal 4-VP16; test: Luciferase reporter assay, Gal 4-VP16 stimulated gene expression; assay type: cell-based, human; details: HEK293 cells
Excerpt: as §2, §3

[4] = system: T3 receptor activity on DR+4 TRE-TK-Luc reporter; test: Luciferase reporter assay, ligand-activated T3 receptor; assay type: cell-based, human; details: 100 nM T3, DR+4 TRE-TK-Luc
Excerpt: as §2, §3

[5] = system: glucocorticoid receptor activity on GRE-TK-Luc construct; test: Luciferase reporter assay, dexamethasone-stimulated glucocorticoid receptor; assay type: cell-based, human; details: 100 nM dexamethasone
Excerpt: as §2, §3

[6] = system: PPARγ receptor activity on PPARγ promoter response element; test: Luciferase reporter assay, ligand-activated PPARγ receptor; assay type: cell-based, human
Excerpt: as §2, §3

[7] = system: P19 mouse embryonic stem cells; test: Neuronal differentiation of P19 cells; assay type: cell-based; details: clonal P19 line, retinoic acid, selective medium
Procedure: P19 cells, C, differentiated GFP expressing P19 cells; D, differentiated SCP1-expressing P19 cells; F, differentiated REST/NRSF-expressing P19 cells. Numbers of NLC per field are shown. *p=0.001 compared to WT 19 cells; **p=0.008 compared to WT P19 cell using student's t-test.
P19 stably expressing REST/NRSF.
These cell lines were maintained in α-MEM/10%FBS with […] G418. To induce neuronal differentiation, P19 cells were allowed to aggregate in bacterial grade petri-dishes (Fisher) at a seeding density of 1×10^5cells/ml in the presence of 1×10^−6M all-trans retinoic acid. After 3 days of aggregation, cells were dissociated into single cells by 0.05% trypsin-0.53 mM EDTA (Gibco). Trypsin was removed by centrifugation and the cells were plated in 6 cm tissue culture dishes (Nunc). at a density of 1×10^5 cells/cm^2 in Neurobasal medium/N2 supplement (Invitrogen) in the presence or absence of 1 μg/ml fibronectin (Invitrogen). The cells were cultured for 5 days after which average cell numbers/field were determined. Cells were either lysed to prepare total RNA (Rneasy kit, Qiagen) or stained with TuJ1 antibody (Babco).
For immunostaining, cells were fixed for 10 mins with 4% paraformaldehyde. TuJ1 antibody was used at 1:2000 and secondary antibody used was FITC-conjuagated anti-mouse (1:3000).

Molecule	shift of the dose response curve for SCP1 catalyzed dephosphorylation of RNAP IIO to lower concentration (SCP1)	binding to GST-SCP1 (GST-SCP1)	phosphatase activity [1]	CTD phosphatase activity on GST-CTDo and RNAP IIO (RNAP IIO)	increase of luciferase activity [2]	enhancement of Gal 4-VP16 stimulated activity [3]	ligand-activated T3 receptor activity [4]	dexamethasone-stimulated glucocorticoid receptor activity [5]	ligand-activated PPARγ receptor activity [6]	increase of the extent of precursor differentiation into neurons [7] [fold]
B1	approximately 10 fold	bound directly								
B2			inactive	lacked activity on either substrate	1.5- to 6 fold	about 2 fold	enhanced	significantly enhanced	enhanced	> 2
